Results as given in the RNAGym collection of RNA variant scans (doi:10.1101/gr.219683.116).

B1: mRNA-splicing (parent)
chain: AGUUGCUGCUGGGAGCUCCAGCACAGUGAAAUGGACAGAAGGGCAGAGCAA

Variants of: B1
Test: exon inclusion enrichment index; higher = more inclusion; WT1 exon 5 minigene, HEK293

Variant | exon inclusion enrichment index
AGUUCUUCUCGGGAGCUCGGGCACAGUGAAAUGGACAGAAGGGCAGAGCAA [G5C C6U G8C C9U U10C C19G A20G] | 1.04
AGUUCUUCUCGGGAGCUCCAGCACAGUGCGAUGGACAGAAGGGCAGAGCAA [G5C C6U G8C C9U U10C A29C A30G] | 3.25
ACGUGACGACGGGAGCUCCAGCACAGUGAAAUGGACAGAAGGGCAGAGCAA [G2C U3G C6A U7C C9A U10C] | 3.19
AGUUGAAGAAGGGAGCUCCAGCACAGUGAAUCGGACAGAAGGGCAGAGCAA [C6A U7A C9A U10A A31U U32C] | 1.09
AGUUCGCGCUAGGAGCUCCAGCACAGUGAAAUGGACAGAAGGGCAGAGCAA [G5C C6G U7C G11A] | 0.993
AGUUUCUUUUGGGAGCUCCAGCACAGUGAAAUGUGCAGAAGGGCAGAGCAA [G5U G8U C9U G34U A35G] | 0.0289
AGUUGCUGCGCGGAGCUCCAGCACAGUGAAAUGGACAGAAGGGCAGAGCAA [U10G G11C] | 2.98
AGUUGAAGAAGGGAGCUCCAGCACAGACAAAUGGACAGAAGGGCAGAGCAA [C6A U7A C9A U10A U27A G28C] | 0.818
AGUUCUUCUCGGGAGCUCCAGCACAGUGAAUUGGACAGAAGGGCAGAGCAA [G5C C6U G8C C9U U10C A31U] | 1.74
AGUUGACGACGGAAGCUCCAGCACAGUGAAAUGGACAGAAGGGCAGAGCAA [C6A U7C C9A U10C G13A] | 3.32
AGUUCUUCUCGGGAGCUCCAGCACAGUGAAAUGGACAGAAGCGCAGAGCAA [G5C C6U G8C C9U U10C G42C] | 3.76
AGUUAUAACCGGGAGCUCCAGCACAGUGAAAUGGACAGAAGGGCAGAGCAA [G5A C6U U7A G8A U10C] | 0.863
ACUUAGGGAUGGGAGCUCCAGCACAGUGAAAUGGACAGAAGGGCAGAGCAA [G2C G5A C6G U7G C9A] | 0.0065
AGUUGACGACGGGAGCUCCAGCACAGUGUUAUGGACAGAAGGGCAGAGCAA [C6A U7C C9A U10C A29U A30U] | 1.98
AGUUGAAGAAGGGAGCUCCAGCACAGUGAAAUGGACAGAAGGACAGAGCAA [C6A U7A C9A U10A G43A] | 2.02
AGUUCGCGCCGGGAGCUCAUGCACAGUGAAAUGGACAGAAGGGCAGAGCAA [G5C C6G U7C U10C C19A A20U] | 1.52
AGUUAUAUAUGGGAGCUCCAGCACAGUGCCAUGGACAGAAGGGCAGAGCAA [G5A C6U U7A G8U C9A A29C A30C] | 0.142
AGUUGACGACGGGAGCUCCAGCACAGUGAAAUGGUAAGAAGGGCAGAGCAA [C6A U7C C9A U10C A35U C36A] | 0.00835
AGUUAUAUAUGGGAGCAACAGCACAGUGAAAUGGACAGAAGGGCAGAGCAA [G5A C6U U7A G8U C9A U17A C18A] | 0.0198
AGUUUCUUUUGGGAGCUCCAGCCAAGUGAAAUGGACAGAAGGGCAGAGCAA [G5U G8U C9U A23C C24A] | 0.231
AGUUCGCGCCGGGAGCUCCAGCACAGUGAAAUGGCAAGAAGGGCAGAGCAA [G5C C6G U7C U10C A35C C36A] | 2.13
AGUUACCACCGUAAGCUCCAGCACAGUGAAAUGGACAGAAGGGCAGAGCAA [G5A U7C G8A U10C G12U G13A] | 0.238
AGUUCUUCUCGGGAGCUCCAGCACAGUGAAAUUCACAGAAGGGCAGAGCAA [G5C C6U G8C C9U U10C G33U G34C] | 0.547
AGUUAUAUAUGGGAGCUCCAGCACAGUGAAAUGGACAGAAGGGCCUAGCAA [G5A C6U U7A G8U C9A A45C G46U] | 0.0134
AGUUCACACAGGGAGCUCCAGCGGAGUGAAAUGGACAGAAGGGCAGAGCAA [G5C C6A U7C G8A U10A A23G C24G] | 0.559
AGUUCGCGCCGGGAGCUCCAGCACAGUGAAAUGGGUAGAAGGGCAGAGCAA [G5C C6G U7C U10C A35G C36U] | 0.0687

Variant | exon inclusion enrichment index
AGUUAGGGAUGGGAGCUCCAGCACAGUGAAAUGGACAGAUUGGCAGAGCAA [G5A C6G U7G C9A A40U G41U] | 0.000481
AGUUACCACCGGGAGCUCCAGCACAGUGAAAUGGAAUGAAGGGCAGAGCAA [G5A U7C G8A U10C C36A A37U] | 1.07
AGUUUGGGAUGGGAGCUCCAGCACAGUGAAAUGGACAGAAGGGCAGAGCAA [G5U C6G U7G C9A] | 0.0617
AGUUCGCGCCGGGAGCUCCAGCACAGUGAAAUGGACAGAAGCACAGAGCAA [G5C C6G U7C U10C G42C G43A] | 4
AGUUACCACCGGGAGCUCCAGCACAGUGAAAUGGACAGAAGCUCAGAGCAA [G5A U7C G8A U10C G42C G43U] | 3.18
AGUUAUAUAUGGGAGCUCCAGCAAAGUGAAAUGGACAGAAGGGCAGAGCAA [G5A C6U U7A G8U C9A C24A] | 0.0667
AGUUAGGGAUGGGAGCUCCAGCACAGUGAAAUGGACAAUAGGGCAGAGCAA [G5A C6G U7G C9A G38A A39U] | 0.00074
AGUUGCUGCUGGGAGCUCCAGCAGAGUGAAAUGGACAGAAGGGCAGAGCAA [C24G] | 0.0337
AGUUAUAUAUGGGAGCUCCAGCACAGUGAAAUGGACAGAUAGGCAGAGCAA [G5A C6U U7A G8U C9A A40U G41A] | 0.00198
AGUUGAAGAAGGGAGCUCCGACACAGUGAAAUGGACAGAAGGGCAGAGCAA [C6A U7A C9A U10A A20G G21A] | 1.2
AGUUACCACCGGGAGCUCCAGCACCAUGAAAUGGACAGAAGGGCAGAGCAA [G5A U7C G8A U10C A25C G26A] | 4.29
AGUUGAGCACGGGAGCUCCAGCACAGUGAAAUGGACAGAAGGGCAGAGCAA [C6A U7G G8C C9A U10C] | 0.907
AGUUCACACAGGGAGCUCCAGCACAGUGAAAUGGACAGAAGGGCUAAGCAA [G5C C6A U7C G8A U10A A45U G46A] | 0.0675
AGUUGCUGCUGGGAGCUCCAGCACAGUGAAAUGGACAGAAGGUAAGAGCAA [G43U C44A] | 0.00923
AGUUCACACAGGGAGCCGCAGCACAGUGAAAUGGACAGAAGGGCAGAGCAA [G5C C6A U7C G8A U10A U17C C18G] | 0.166
AGUUACCACCGGGAGAACCAGCACAGUGAAAUGGACAGAAGGGCAGAGCAA [G5A U7C G8A U10C C16A U17A] | 2.05
AGUUGUGGCUGGGAGCUCCAGCACAGUGAAAUGGACAGAAGGGCAGAGCAA [C6U U7G] | 0.0137
AGUUACCACCGGGAGCUCCAGCACAGUGAAAUGGACAGAAGGGGCGAGCAA [G5A U7C G8A U10C C44G A45C] | 3.34
AGUUACCACCGGGAGCUCCAGCACAGUGAAAUGGACAGAAGGGGUGAGCAA [G5A U7C G8A U10C C44G A45U] | 1.92
AGUUGAAGAAGGGCCCUCCAGCACAGUGAAAUGGACAGAAGGGCAGAGCAA [C6A U7A C9A U10A A14C G15C] | 0.452
AGUUGAAGAAGGGAGCUCCAGCACAGUGACGUGGACAGAAGGGCAGAGCAA [C6A U7A C9A U10A A30C A31G] | 1.45
AGUAUUAUAUGGGAGCUCCAGCACAGUGAAAUGGACAGAAGGGCAGAGCAA [U4A G5U C6U U7A G8U C9A] | 0.0503
AGUUCACACAGGGAGCUCCAGCACAGUGAAAGCGACAGAAGGGCAGAGCAA [G5C C6A U7C G8A U10A U32G G33C] | 0.0862
AGUUCUUCUCGGGAGCUUCAGCACAGUGAAAUGGACAGAAGGGCAGAGCAA [G5C C6U G8C C9U U10C C18U] | 1.62
AGUCCAAGAAGGGAGCUCCAGCACAGUGAAAUGGACAGAAGGGCAGAGCAA [U4C G5C C6A U7A C9A U10A] | 1.37
